This is an account of results in patent publication US20040253685A1.

The target of assay [1] is T1, wild type bovine endothelial nitric oxide synthase (eNOS) (bovine) (UniProt P29473).
T1 sequence (looked up): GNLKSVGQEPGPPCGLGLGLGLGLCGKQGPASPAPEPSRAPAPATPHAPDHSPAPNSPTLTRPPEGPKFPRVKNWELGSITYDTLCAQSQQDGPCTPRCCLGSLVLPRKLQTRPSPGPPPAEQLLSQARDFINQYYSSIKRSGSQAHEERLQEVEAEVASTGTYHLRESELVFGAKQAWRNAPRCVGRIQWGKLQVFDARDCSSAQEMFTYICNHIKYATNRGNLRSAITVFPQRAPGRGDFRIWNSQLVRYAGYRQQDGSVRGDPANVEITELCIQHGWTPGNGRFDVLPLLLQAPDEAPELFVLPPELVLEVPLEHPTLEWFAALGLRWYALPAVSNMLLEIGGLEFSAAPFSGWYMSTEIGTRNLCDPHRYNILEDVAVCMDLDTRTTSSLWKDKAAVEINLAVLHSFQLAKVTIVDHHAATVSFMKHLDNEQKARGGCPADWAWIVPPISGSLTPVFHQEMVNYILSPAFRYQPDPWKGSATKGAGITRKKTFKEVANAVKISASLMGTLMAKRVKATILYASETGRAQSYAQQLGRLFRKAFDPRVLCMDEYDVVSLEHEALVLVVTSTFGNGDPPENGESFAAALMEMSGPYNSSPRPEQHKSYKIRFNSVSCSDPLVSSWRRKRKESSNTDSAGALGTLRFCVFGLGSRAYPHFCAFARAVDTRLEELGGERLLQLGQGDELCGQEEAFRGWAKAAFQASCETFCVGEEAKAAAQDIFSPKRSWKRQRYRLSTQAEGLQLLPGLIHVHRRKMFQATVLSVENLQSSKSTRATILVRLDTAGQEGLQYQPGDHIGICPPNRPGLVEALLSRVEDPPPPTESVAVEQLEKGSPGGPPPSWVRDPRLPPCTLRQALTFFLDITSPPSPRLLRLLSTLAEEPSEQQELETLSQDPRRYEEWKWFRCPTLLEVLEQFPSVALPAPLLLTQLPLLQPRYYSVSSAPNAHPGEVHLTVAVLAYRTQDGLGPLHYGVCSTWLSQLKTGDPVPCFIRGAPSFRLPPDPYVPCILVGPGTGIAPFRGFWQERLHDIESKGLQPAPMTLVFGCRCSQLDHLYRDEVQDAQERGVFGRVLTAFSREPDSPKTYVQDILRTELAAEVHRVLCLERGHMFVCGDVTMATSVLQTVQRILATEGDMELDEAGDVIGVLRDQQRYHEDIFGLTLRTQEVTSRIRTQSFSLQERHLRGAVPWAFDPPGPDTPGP
Description: cell-based or functional assay.

For assay [2], the target named is S1179D eNOS (bovine) (bovine) (UniProt P29473). Description: cell-based or functional assay.

Take “HA-tagged kinase inactive Akt (K179M) (enzyme)”: the cGMP accumulation (assayed in COS cells) in assay [1] was determined as 5.8 pmol cGMP.

In assay [1], “HA-tagged wild-type Akt (protein kinase B) (enzyme)” displayed a phosphorylation of eNOS in 32P-orthophosphate labeled COS cells of 2 fold.

In assay [2], calmodulin registered an EC50 for CaM, NADPH-mediated cytochrome c reduction as a function of CaM concentration of 21 nM and an EC50 for CaM, NOS activity (L-Citrulline) as a function of CaM concentration of 7 nM. In assay [1], this substance registered an EC50 for CaM, NADPH-mediated cytochrome c reduction as a function of CaM concentration of 13 nM and an EC50 for CaM, NOS activity (L-Citrulline) as a function of CaM concentration of 8 nM.

Consider “constitutively active form of Akt (myr-Akt) (enzyme)”, for which the cGMP accumulation (assayed in COS cells) (pmol cGMP/mg protein) in assay [1] turned out to be 11.6.
